# According to patent US20210324080A1 (JIANGSU HUAIYU PHARMACEUTICAL, published 2021):
# Where a chain is given by its changes, count along the chain named.
# T1: CTLA-4-hFc (immunogen A; hFc-labeled CTLA-4 extracellular domain protein) (human, UniProt P16410 36-161)
# T1 construct: range 36-161; Made in HEK293 cells, purified on protein A; also called CLTA-4-hFc; CTLA-4 protein; not shown: human IgG Fc fragment (hFc) of the pCpC vector
# T1 sequence (looked up): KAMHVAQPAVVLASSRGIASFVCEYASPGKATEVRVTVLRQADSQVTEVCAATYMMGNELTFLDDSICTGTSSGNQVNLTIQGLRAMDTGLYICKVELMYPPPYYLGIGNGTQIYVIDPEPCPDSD
# T2: human CTLA-4 (Y201V), full length, on transfected cells (human, UniProt P16410 36-223)
# T2 construct: whole, on cells; also called hCTLA-4; HEK293-hCTLA-4 (Y201V)
# T2 sequence (looked up): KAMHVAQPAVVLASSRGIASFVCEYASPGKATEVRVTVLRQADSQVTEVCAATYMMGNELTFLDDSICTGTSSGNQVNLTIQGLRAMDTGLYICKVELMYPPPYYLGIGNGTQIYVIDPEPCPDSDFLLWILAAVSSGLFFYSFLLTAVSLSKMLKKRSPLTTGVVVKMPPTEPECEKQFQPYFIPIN
# T3: recombinant His-labeled hCTLA-4 ECD protein (human, UniProt P16410 36-161)
# T3 construct: extracellular domain; also called human CTLA-4 ECD; not shown: His label
# T3 sequence (looked up): T1 sequence (looked up)
# T4: CTLA-4 on human T lymphocytes (PBMC, CD3+ T cells) (human, UniProt P16410 36-223)
# T4 sequence (looked up): T2 sequence (looked up) with V166Y
# B1: 31C12F3 (chimeric antibody purified from hybridoma supernatant) (antibody, V domains shown)
# VH: QVQLVESGGGVVQPGRSLILSCAASGFTFSSYGMHWVRQAPGKGLEWVAVVWYDGSNKYYADSVKGRFTISRDNSKNTLYLQMSSLRAEDTAVYYCARGGIVVPGLFEYWGQGSLVTVSS
# VL: DIQMTQSPSSLSASVGDRVAITCRTSQSISNLLNWYQQKPGKAPELLIYAPSSFQSGVPSRFRGSGSGTDFTLTISSLQPEDFATYYCQQSYSTPFTFGPGTKVDIK
# notes: also called mAb010
# B2: 97B8E1 fully human CTLA-4 antibody (human IgG1, kappa) (antibody, V domains shown)
# VH: QVQLVESGGGVVQPGRSLRLSCAASGFTFSSYVMHWVRQAPGKGLEWVAVIWSDGRNKYYTDSVKGRFTISRDNSKNTLYLQMSSLRAEDTAVYYCARSGIALAGNAFDIWGQGTMVTVSS
# VL: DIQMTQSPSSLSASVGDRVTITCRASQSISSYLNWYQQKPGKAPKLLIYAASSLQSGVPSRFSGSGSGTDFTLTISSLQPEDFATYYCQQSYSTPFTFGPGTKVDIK
# notes: also called mAb50; mAb050
# Legend:
# [1] = molecular target: T1, CTLA-4-hFc (immunogen A; hFc-labeled …); test: ELISA, coated CTLA-4-hFc, competitor biotin-B7.1-hFc
# Procedure: (§1) CTLA-4 extracellular domain protein (CTLA-4-hFc) was diluted with PBS to a final concentration of 1.0 μg/mL, and then added to a 96-well ELISA plate as 100 μl per well. The plate was covered with a plastic film and incubated overnight at 4° C. The plate was washed twice with plate washing solution [PBS containing 0.01% (v/v) Tween 20] on the next day, and added with blocking solution [PBS containing 0.01% (v/v) Tween 20 and 1% (w/w) BSA] and blocked at room temperature for 2 hours. […] After 2 hours, the plate was washed 3 times with a plate washing solution [PBS containing 0.01% (v/v) Tween 20]. HRP (horseradish peroxidase) labeled avidin diluent (purchased from Sigma) was added 100 microliters per well, and after the plate was incubated for 2 hours at 37° C., it was washed with plate washing solution [PBS containing 0.01% (v/v) Tween 20] for 3 times. […] TMB substrate was added to each well. After incubated at room temperature for 30 minutes, the plate was added with […] stop solution (1.0N HCl) to each well. An ELISA plate reader (SpectraMax 384plus, Molecular Device) was used to read the A450 nm value.
# [2] = molecular target: T1, CTLA-4-hFc (immunogen A; hFc-labeled …); test: ELISA, coated CTLA-4-hFc, competitor biotin-B7.2-hFc
# Procedure: as §1
# [3] = molecular target: T5, monkey CTLA-4, full length, on transfected HEK293 cells (monkey); test: FACS, 293F-cCTLA-4 cells
# T5 construct: whole, on cells; also called cCTLA-4; HEK293-cCTLA-4
# Source text: (§2) The pIRES plasmid with the monkey-derived CTLA-4 full-length gene was transfected into the HEK293 cell line to construct a HEK293 stable cell line containing monkey CTLA-4 (herein referred to as HEK293-cCTLA-4 stable cell line), wherein the database accession number of the monkey CTLA-4 nucleotide sequence is XM_005574014.1. The HEK293-hCTLA-4 stable cell line and HEK293-cCTLA-4 stable cell line were expanded in a T-75 cell culture flask to a 90% confluence. The medium was aspirated, and the cells were washed with HBSS buffer (Hanks Balanced Salt Solution, purchased from Invitrogen) twice, then treated with an enzyme-free cell dissociation fluid (Versene solution, purchased from Life technology) and the cells were collected. The cells were washed with HBSS buffer twice. After counted, the cells were diluted with HBSS buffer to 2×10⁶ cells per ml, added with 1% goat serum blocking solution, wherein the percentage was the mass percantage. Cells were incubated on ice for 30 minutes, then washed twice with HBSS buffer by centrifugation. The collected cells were suspended in the FACS buffer (HBSS containing 1% BSA, wherein the percentage was the mass percantage) to 2×10⁶ cells/ml, added as 100 microliters per well to a 96-well FACS reaction plate, added with 100 microliters per well of the purified CTLA-4 antibody sample to be tested, incubated on ice for 2 hours. The plate was washed twice with the FACS buffer by centrifugation, added with 100 microliters of fluorescent (Alexa 488)-labeled secondary antibodies (purchased from Invitrogen) per well, and incubated on ice for 1 hour. The plate was washed 3 times with FACS buffer by centrifugation, added with 100 μl fixative solution [4% (v/v) Paraformaldehyde] per well to suspend the cells. 10 minutes later, it was washed 2 times with FACS buffer by centrifugation. The cells were suspended with 100 microliters of FACS buffer, FACS (FACS Calibur, purchased from BD) was used for detection and the results were analyzed.
# [4] = molecular target: T1, CTLA-4-hFc (immunogen A; hFc-labeled …); test: competition ELISA: CTLA-4-hFc coated, antibody titrated, blocked ligand biotin-labeled B7.2-hFc, HRP-avidin, A450, inhibition (%)
# Procedure: as §1
# [5] = molecular target: T2, human CTLA-4 (Y201V), full length, on …; test: FACS, CHOK1-hCTLA-4 cells
# [6] = molecular target: T1, CTLA-4-hFc (immunogen A; hFc-labeled …); test: competition ELISA: CTLA-4-hFc coated, antibody titrated, blocked ligand biotin-labeled B7.1-hFc, HRP-avidin, A450, inhibition (%)
# Procedure: as §1
# [7] = molecular target: T5, monkey CTLA-4, full length, on …; test: FACS, monkey CTLA-4 expressing cells
# Source text: as §2
# [8] = molecular target: T3, recombinant His-labeled hCTLA-4 ECD …; test: SPR Biacore T200, antibody captured by anti-human Fc, 1:1 model
# Procedure: Anti-human Fc IgG was fixed on flow cell 1 and 2. HBS-EP+ (10 mmol/L HEPES, 150 mmol/L NaCl, 3 mM EDTA, 0.05% P20, pH 7.4) was used as the running buffer, and anti-human Fc IgG was fixed using the fixing wizard template. The flow cells 1 and 2 connected in series with S CM5 sensor chip were activated with freshly mixed 50 mmol/L NHS and 200 mmol/L EDC. Anti-human Fc IgG was diluted to […] with 10 mmol/L NaAC (pH 4.5) and injected into activated flow cells 1 and 2. The remaining active coupling sites were blocked with 1 mol/L ethanolamine.
# The recombinant His-labeled hCTLA-4 ECD protein was diluted to 50 nmol/L, and then serially diluted 4 times with HBS-EP+ buffer at a 2-fold ratio. […] Each antibody was injected into the CM5 sensor flow cell 2 at a flow rate of 10 μL/min to achieve a response of 230 RU. Then the prepared His-labeled hCTLA-4ECD protein was injected into flow cells 1 and 2 at a flow rate of 30 μL/min for 180 seconds. The buffer flow was maintained for 400 seconds for dissociation measurement (30 μL/min). To remove the tested antibody from the surface, 10 mmol/L glycine-HCl pH1.5 was injected for 20 seconds (30 μL/min). Flow cell 1 was used as a reference flow cell. The above steps were repeated for each concentration of serially diluted His-labeled CTLA-4ECD protein. The KD value of each antibody was evaluated using Biacore T200 evaluation software 1.0, and a 1:1 binding model was used to fit the data.
# [9] = molecular target: T2, human CTLA-4 (Y201V), full length, on …; test: FACS, human CTLA-4 expressing cells
# [10] = molecular target: T1, CTLA-4-hFc (immunogen A; hFc-labeled …); test: blocking assay, CTLA-4 protein, competitor B7.2
# Procedure: as §1
# [11] = molecular target: T4, CTLA-4 on human T lymphocytes (PBMC, …); test: cell-based or functional assay
binder,measurement,setting,value
B1,Inhibition rate (%) at 0.00091 nM,[1],0%
same,Inhibition rate (%) at 0.091 nM,[1],1.7%
same,Inhibition rate (%) at 0.274 nM,[1],25.7%
same,Inhibition rate (%) at 0.823 nM,[1],72.2%
same,Inhibition rate (%) at 2.5 nM,[1],87.7%
same,Inhibition rate (%) at 7.4 nM,[1],89.6%
same,Inhibition rate (%) at 22.2 nM,[1],93.6%
same,Inhibition rate (%) at 66.7 nM,[1],94.4%
same,Inhibition rate (%) at 0.00091 nM,[2],0%
same,Inhibition rate (%) at 0.091 nM,[2],-8.8%
same,Inhibition rate (%) at 0.274 nM,[2],17.1%
same,Inhibition rate (%) at 0.823 nM,[2],60.2%
same,Inhibition rate (%) at 2.5 nM,[2],83.6%
same,Inhibition rate (%) at 7.4 nM,[2],89.9%
same,Inhibition rate (%) at 22.2 nM,[2],92.1%
same,Inhibition rate (%) at 66.7 nM,[2],92.8%
same,MFI at 0.000128 nM,[3],2.4
same,MFI at 0.0128 nM,[3],34.3
same,MFI at 0.064 nM,[3],97.7
same,MFI at 0.32 nM,[3],261
same,MFI at 1.6 nM,[3],455
same,MFI at 8 nM,[3],654
same,MFI at 40 nM,[3],712
same,MFI at 200 nM,[3],668
same,IC50 (read off the curve),[4],~0.5 nM
same,MFI at 0.07 nM,[5],27.6
same,MFI at 0.67 nM,[5],95
same,MFI at 6.67 nM,[5],386
same,MFI at 66.67 nM,[5],469
same,IC50 (read off the curve),[6],~0.4 nM
B2,MFI at 0.000128 nM,[7],2
same,MFI at 0.0128 nM,[7],36
same,MFI at 0.064 nM,[7],97
same,MFI at 0.32 nM,[7],270
same,MFI at 1.6 nM,[7],504
same,MFI at 8 nM,[7],757
same,MFI at 40 nM,[7],810
same,MFI at 200 nM,[7],784
same,Kd,[8],3.5 nM
same,koff,[8],0.00151 s⁻¹
same,kon,[8],431000 M⁻¹ s⁻¹
same,MFI at 0.000128 nM,[9],3
same,MFI at 0.0128 nM,[9],31
same,MFI at 0.064 nM,[9],85
same,MFI at 0.32 nM,[9],229
same,MFI at 1.6 nM,[9],491
same,MFI at 8 nM,[9],727
same,MFI at 40 nM,[9],902
same,MFI at 200 nM,[9],886
same,% Block at 0.000128 nM,[10],0%
same,% Block at 0.0128 nM,[10],26.3%
same,% Block at 0.064 nM,[10],42.8%
same,% Block at 0.32 nM,[10],82.3%
same,% Block at 1.6 nM,[10],98.7%
same,% Block at 8 nM,[10],99%
same,% Block at 40 nM,[10],99%
same,% Block at 200 nM,[10],99.1%
same,"IL-2 secretion, pg/ml, at 0.13 ug/ml, N = 1",[11],1570 pg/mL
same,"IL-2 secretion, pg/ml, at 0.13 ug/ml, N = 2",[11],1450 pg/mL
same,"IL-2 secretion, pg/ml, at 0.37 ug/ml, N = 1",[11],2480 pg/mL
same,"IL-2 secretion, pg/ml, at 0.37 ug/ml, N = 2",[11],1860 pg/mL
same,"IL-2 secretion, pg/ml, at 1.1 ug/ml, N = 1",[11],3460 pg/mL
same,"IL-2 secretion, pg/ml, at 1.1 ug/ml, N = 2",[11],2560 pg/mL
same,"IL-2 secretion, pg/ml, at 3.3 ug/ml, N = 1",[11],4240 pg/mL
same,"IL-2 secretion, pg/ml, at 3.3 ug/ml, N = 2",[11],4200 pg/mL
same,"IL-2 secretion, pg/ml, at 10 ug/ml, N = 1",[11],6650 pg/mL
same,"IL-2 secretion, pg/ml, at 10 ug/ml, N = 2",[11],5210 pg/mL
same,"IL-2 secretion, pg/ml, at 30 ug/ml, N = 1",[11],7650 pg/mL
same,"IL-2 secretion, pg/ml, at 30 ug/ml, N = 2",[11],8210 pg/mL
